B1: TPR t1 (parent)
chain: GACCAAUCUGCCCUCAGAGCUCGAGAACAUCUUCGGAUGCAGAGGAGGCAGGCUUCGGUGGCGCGAUAGCGCCAACGUCCUCAACCUCCAAUGCAUCCCACCACAUGAUGAUGCCUGAAGAGCCUUGGUUUUUUG

In this data set the parent is B1. The experiment in a line: polymerase ribozyme fitness, log enrichment relative to wild type (log ratio); higher = more active; in vitro selection for triplet polymerase activity. The gist of the method:
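Fitness measures genotype enrichment against wild-type enrichment on a logarithmic scale, with inverse-variance-weighted averaging of replicates. The logarithm is base 2, and genotypes were kept only with ≥10 input reads and ≥1 read per output in Illumina sequencing. The sequenced libraries came from one triplicate in vitro selection round, including frozen incubation at −7 °C, of PCR-built, transcribed mutant libraries of each subunit of a heterodimeric triplet polymerase ribozyme.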
Regarding GACCAAUCUGCCCUCAGAGCUCGAGAACAUCUUCGGAUGCAGAGGAGGUAGGCUUCGGUGGCGCGAUAGCGGCAACGUCCUCAACCUCCAAUGCAUCCCACCACAUGAUGAUUCCUUAAGAGCCUUGGUUUUUUG, the “polymerase ribozyme fitness (log ratio)” value is -6.76. With GACCAAUCUGCCCUCAGAGCUCGAGAACAUCUUCGGAUGCAGAGGAGGUAGGCUUCGGUGGCGCGAUAGCGCCAACGUCCUCAACCUCCAAUGCCUCCCACCACAUGAUGAUGCCUGAAGAGCCUUGGUUUUUUG, the “polymerase ribozyme fitness (log ratio)” value was -1. Turning to GACCAAUCUGCCCUCAGAGCUCGAGAACAUCUUCGGAUGCAGAGGAGGUAGGCUUCGGUGGCGCGAUAGCGCCAACGUCCUCAACCUCCAAUGCAUCCCACCACAUGAUGAUGCCUGAAGUGCCUUGGUUUUUUG, the “polymerase ribozyme fitness (log ratio)” value was 1.09. GACCAAUCUGCCCUCAGAGCUCGAGAACAUCUUCGGAUGCAGAGGAGGUGGGCUUCGGUGGCGCGAUAGAGCCAACGUCCUCAACCUCCAAUGCAUCCCACCACAUGAUGAUGCCUGAAGAGCCUUGGUUUUUUG: the “polymerase ribozyme fitness (log ratio)” value was -4.55. Turning to GACCAAUCUGCCCUCAGAGCUCGAGAACAUCUUCGGAUGCAGAGGAGGUAGGCUUCGGUGGCGCGAUAGCGUCAUCGUCCUCAACCUCCAAUGCAUCCCACCACAGGAUGAUGCCUGAAGAGCCUUGGUUUUUUG, the “polymerase ribozyme fitness (log ratio)” value was -3.16. Regarding GACCAAUCUGCCCUCAGAGCUCGAGAACAUCUUCGGAUGCAGAGGAGGGAGGCUUCGGUGGCGCGAUAGCGCCAACGUCCUCAACCUCCAAUGCAUCCCACCACAUGAUGAGGCCUGAAGAGCCUUGGGUUUUUG, the “polymerase ribozyme fitness (log ratio)” value is -0.483. Consider GACCAAUCUGCCCUCAGAGCUCGAGAACAUCUUCGGAUGCAGAGGAGGUUGGCUUCGGUGGCGCGAUAGCGCCAACGUCCUCAACCUCCAAUGCAUCCCACCACAUGAUGAUGCCUGAAGAGCCUUGGUUUUUUG, for which the “polymerase ribozyme fitness (log ratio)” value was -3.59. Turning to GACCAAUCUGCCCUCAGAGCUCGAGAACAUCUUCGGAUGCAGAGGAGGUCGGCUUCGGUGGCGCGAUAACGCCAACGUCCUCAACCUCCAAUGCAUCCCACCACAUGAUGAUGCCUGAAGAGCCUUGGUUUUUUU, the “polymerase ribozyme fitness (log ratio)” value was -3.24. With GACCAAUCUGCCCUCAGAGCUCGAGAACAUCUUCGGAUGCAGAGGAGGUAGGCUUAGGUGGCGCGAUAGCGCCAACGUCCUCAACCUCCAAUGCAUCCCACCACAUGAUGAUGCCUGAACAGCCUUGGUUUUUUG, the “polymerase ribozyme fitness (log ratio)” value came out at 0.0733. On to GACCAAUCUGCCCUCAGAGCUCGAGAACAUCUUCGGAUGCAGAGGAGGGAGGCUUCGGUGGCGCGAUAGCGCCAACGUCCUCAACCUCCAAUGCAUCCCACCACAUGAUGAGGCCUGAAGAGCCUUGGUUUUUUG, for which the “polymerase ribozyme fitness (log ratio)” value was 0.00648. Consider GACCAAUCUGCCCUCAGAGCUCGAGAACAUCUUCGGAUGCAGAGGAGGGAGGCUUCGGUGGCGCGAUAGCGCCAACGUCCUCAACCUCCAAUGCAUCCCACCACAUGAUGAAGCCUGAAGAGCCUUGGUUUUUUG, for which the “polymerase ribozyme fitness (log ratio)” value amounted to 0.92. GACCAAUCUGCCCUCAGAGCUCGAGAACAUCUUCGGAUGCAGAGGAGGGAGGCCUCGGUGGCCCGAUAGCGCCAACGUCCUCAACCUGCAAUGCAUCCCACCACAGGAUGAUGCCUGAAGAGCCUUGGUUUUUUG: the “polymerase ribozyme fitness (log ratio)” value was -5.67. In the case of GACCAAUCUGCCCUCAGAGCUCGAGAACAUCUUCGGAUGCAGAGGAGGUAGGCUUCGGUGGCGCGAUAGCGCCAACGUCCUCAACCUCCAUUGCAUCCCACCACAUGAUGAUGCAUGAAGAGCCUUGGUUUUUUG, the “polymerase ribozyme fitness (log ratio)” value is -2.58. For the variant GACCAAUCUGCCCUCAGAGCUCGAGAACAUCUUCGGAUGCAGAGGAGGUAGGCUUCGGUGGCGCGAUAGCGGCAACGUCCUCAACCUCCAAUGCAUUCCACCACAAGAUGAUGCCUGAAGAGCCUUGGUUUUUUG, the “polymerase ribozyme fitness (log ratio)” value is -0.73. Then GACCAAUCUGCCCUCAGAGCUCGAGAACAUCUUCGGAUGCAGAGGAGGUAGGCUUAGGUGGCGCGAUAGCGCCAACGUCCUCAACCUCCAAUGCAUCCCACCACAUGAAGAUGCCUUAAGAGCCUUGGUUUUUUG, with -5.98; and GACCAAUCUGCCCUCAGAGCUCGAGAACAUCUUCGGAUGCAGAGGAGGUAGGAUUCGGUGGCGCGAUAGCGCCAACGUCCUCAACCUCCAAUGCAUCCCAACACAUGAUGAUGCCUGAAAAGCCUUGGUUUUUUG, with -1.13; and GACCAAUCUGCCCUCAGAGCUCGAGAACAUCUUCGGAUGCAGAGGAGGUAGGAUUCGGUGGCGCGAUAGCGCCAACGUCCUCAACCUCCAAUGCAUCCCACCACAUGAUGAUGCCUGAAGAGCCUUGGUUUUUUG, with -0.289. For the variant GACCAAUCUGCCCUCAGAGCUCGAGAACAUCUUCGGAUGCAGAGGAGGGAGGCAUCGGUGGCGCGAUAGCGCCAACGUCCUCAACCUCCAAUGCAUCCCACCACAUGAUGAUGCCUGAAGAGCCUUGGUUUUUUG, the “polymerase ribozyme fitness (log ratio)” value came out at 0.0212. In the case of GACCAAUCUGCCCUCAGAGCUCGAGAACAUCUUCGGAUGCAGAGGAGGGAGGCUUCGGUGGCGCGAUAGCGCCAACGGCCUCAACCUCCAAUGCAUCCCACCACAUGAUGAUGCCUGAAGAGCCUUGGUUUUUUG, the “polymerase ribozyme fitness (log ratio)” value is -0.998. GACCAAUCUGCCCUCAGAGCUCGAGAACAUCUUCGGAUGCAGAGGAGGUAGGCUUCGGUGGCGCGAUAGCGCCCACGUCCUCAACCUCCAAUGCAUCCCACCACAUGAUGAUGCCUGAAGAACCUUGGUUUUUUG: the “polymerase ribozyme fitness (log ratio)” value was -1.62. As to GACCAAUCUGCCCUCAGAGCUCGAGAACAUCUUCGGAUGCAGAGGAGGUAGGCUUCGGUGGCGCGGUAGCGCCAACGUCCUCAACCUCCAAUGCAUCCCACCACAUGAUGAUGCCUGAAGAGCCUUGGUUUUUUG, the “polymerase ribozyme fitness (log ratio)” value was -1.95.

The values are drawn from the RNAGym collection of RNA variant scans (doi:10.1073/pnas.2313332121).
